Test results as given in the supplement of paper PMC7877785.
± gives the uncertainty stated by the source.

Assay: self-splicing fitness, log relative to wild type (ln ratio); higher = more splicing; Tetrahymena group I intron in knt gene, E. coli kanamycin selection, DiMSum; sequences stand for … in CUCUCU…GGAGGGAAAAGUUAUCAGGCAUGCACCUGGUAGCUAGUCUUUAAACCAAUAGAUUGCAUCGGUUUAAAAGGCAAGACCGUCAAAUUGCGGGAAAGGGGUCAACAGCCGUUCAGUACCAAGUCUCAGGGGAAACUUUGAGAUGGCCUUGCAAAGGGUAUGGUAAUAAGCUGACGGACAUGGUCCUAACCACGCAGCCAAGUCCUAAGUCAACAGAUCUUCUGUUGAUAUGGAUGCAGUUCACAGACUAAAUGUCGGUCGGGGAAGAUGUAUUCUUCUCAUAAGAUAUAGUCGGACCUCUCCUUAAUGGGAGCUAGCGGAUGAAGUGAUGCAACACUGGAGCCGCUGGGAACUAAUUUGUAUGCGAAAGUAUAUUGAUUAGUUUUGGAGUACUCGUGGUCG
In short: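 Fitness was computed with DiMSum as the error-weighted combination of replicate fold changes, kanamycin versus none, each normalised to wild type. The library randomised all eight intron nucleotides of the P1ex region, with the intron placed in the knt kanamycin-resistance gene on pET-22b(+) in E. coli BL21(DE3). Six replicate transformations were grown overnight at 37°C or 30°C on LB agar with or without 25 μg/mL kanamycin, plus 100 μg/mL carbenicillin, 50 μM IPTG and 0.2% rhamnose. Pooled colonies were amplicon-sequenced on an Illumina HiSeq 2500.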

Sequence	self-splicing fitness (ln) (30 °C)	self-splicing fitness (ln) (37 °C)
AAUAAGCAAUAUUACGGGAC	-3.76 ± 0.3	-2.17 ± 0.21
AAUAAGCAAUAUUACGGGUG	-1.59 ± 0.12	-1.04 ± 0.11
AAUAAGCAAUAUUACGUAAC		-1.85 ± 0.25
AAUAAGCAAUAUUACGUAUC	-1.6 ± 0.087	-1.36 ± 0.11
AAUAAGCAAUAUUACGUCCU	-0.0473 ± 0.076	0.0333 ± 0.088
AAUAAGCAAUAUUACGUCGU	-0.729 ± 0.079	-0.613 ± 0.093
AAUAAGCAAUAUUACGUCUC	-1.68 ± 0.11	-0.799 ± 0.13
AAUAAGCAAUAUUACGUUAU	-2.45 ± 0.13	-1.58 ± 0.16
AAUCAGCAAUAUUACGAAUU	-0.152 ± 0.1	0.193 ± 0.13
AAUCAGCAAUAUUACGACGG	-1.73 ± 0.097	-0.991 ± 0.13
AAUCAGCAAUAUUACGACGU	0.0618 ± 0.056	0.666 ± 0.07
AAUCAGCAAUAUUACGACUG	-0.833 ± 0.097	0.27 ± 0.11
AAUCAGCAAUAUUACGACUU	0.234 ± 0.068	0.142 ± 0.083
AAUCAGCAAUAUUACGAGGC	-3.28 ± 0.25	-2.47 ± 0.23
AAUCAGCAAUAUUACGAUAA	-0.0103 ± 0.084	-0.0641 ± 0.1
AAUCAGCAAUAUUACGAUUG	-1.54 ± 0.064	-0.631 ± 0.085
AAUCAGCAAUAUUACGCACC	-0.409 ± 0.17	0.0564 ± 0.22
AAUCAGCAAUAUUACGCAGG	-1.51 ± 0.11	0.11 ± 0.097
AAUCAGCAAUAUUACGCAGU	-0.402 ± 0.066	-0.257 ± 0.078
AAUCAGCAAUAUUACGCAUU	-1.1 ± 0.072	-0.498 ± 0.086
AAUCAGCAAUAUUACGCCCU	0.314 ± 0.099	0.0253 ± 0.12
AAUCAGCAAUAUUACGGAAG	-1.75 ± 0.11	-0.948 ± 0.12
AAUCAGCAAUAUUACGGAUC	-0.358 ± 0.073	0.17 ± 0.1
AAUCAGCAAUAUUACGGCCC	-0.563 ± 0.18	0.491 ± 0.2
AAUCAGCAAUAUUACGGCCU	0.091 ± 0.13	0.245 ± 0.15
AAUCAGCAAUAUUACGGGAC	-3.57 ± 0.18	-1.4 ± 0.096

Sequence	self-splicing fitness (ln) (30 °C)	self-splicing fitness (ln) (37 °C)
AAUCAGCAAUAUUACGGGCC	-3.19 ± 0.44	-2.58 ± 0.28
AAUCAGCAAUAUUACGGGCU	-2.04 ± 0.081	-1.22 ± 0.094
AAUCAGCAAUAUUACGGGGC	-3.92 ± 0.33	-2.58 ± 0.29
AAUCAGCAAUAUUACGGUAC	-0.714 ± 0.082	-0.852 ± 0.1
AAUCAGCAAUAUUACGUACC	-0.557 ± 0.16	-0.29 ± 0.18
AAUCAGCAAUAUUACGUGAG	-0.184 ± 0.047	0.612 ± 0.077
AAUCAGCAAUAUUACGUGGU	-1.65 ± 0.088	-0.981 ± 0.11
AAUCAGCAAUAUUACGUUGG	-2.06 ± 0.1	-1 ± 0.1
AAUGAGCAAUAUUACGAACA	-1.5 ± 0.45	-1.2 ± 0.48
AAUGAGCAAUAUUACGACAA	-3.01 ± 0.27	-1.93 ± 0.25
AAUGAGCAAUAUUACGAUUA	-2.57 ± 0.11	-1.37 ± 0.1
AAUGAGCAAUAUUACGAUUC	-3.1 ± 0.26	-2.43 ± 0.26
AAUGAGCAAUAUUACGCAGA	-2.8 ± 0.27	-1.56 ± 0.25
AAUGAGCAAUAUUACGCCUG	-3.5 ± 0.2	-2.85 ± 0.26
AAUGAGCAAUAUUACGCUGC		-1.24 ± 0.24
AAUGAGCAAUAUUACGGCAA	-2.55 ± 0.34	-1.85 ± 0.35
AAUGAGCAAUAUUACGGGAU	-4.32 ± 0.28	-3.09 ± 0.29
AAUGAGCAAUAUUACGGGCC		-1.76 ± 0.39
AAUGAGCAAUAUUACGGUAU		-1.81 ± 0.19
AAUGAGCAAUAUUACGGUGA	-3.31 ± 0.27	-2.26 ± 0.42
AAUGAGCAAUAUUACGGUUG	-2.99 ± 0.13	-2.81 ± 0.19
AAUGAGCAAUAUUACGUAAG	-2.38 ± 0.22	-2.2 ± 0.23
AAUGAGCAAUAUUACGUACU	-0.657 ± 0.12	-0.978 ± 0.16
AAUGAGCAAUAUUACGUCUA	-2.27 ± 0.24	-1.59 ± 0.18
AAUGAGCAAUAUUACGUCUU	0.00922 ± 0.083	-0.0903 ± 0.096
AAUGAGCAAUAUUACGUGUU	-4.51 ± 0.23	-2.85 ± 0.22

Sequence	self-splicing fitness (ln) (30 °C)	self-splicing fitness (ln) (37 °C)
AAUGAGCAAUAUUACGUUAA	-2.76 ± 0.18	-1.72 ± 0.17
AAUGAGCAAUAUUACGUUGU	-3.73 ± 0.14	-2.89 ± 0.16
AAUUAGCAAUAUUACGAAAA	-2.54 ± 0.24	-0.586 ± 0.19
AAUUAGCAAUAUUACGAAGC	-1.94 ± 0.27	
AAUUAGCAAUAUUACGAAGG	-2.79 ± 0.23	-1.88 ± 0.35
AAUUAGCAAUAUUACGAUGU	-0.358 ± 0.078	0.171 ± 0.11
AAUUAGCAAUAUUACGAUUU	-0.494 ± 0.11	-0.268 ± 0.13
AAUUAGCAAUAUUACGCAGC	-3.15 ± 0.48	-2.21 ± 0.27
AAUUAGCAAUAUUACGCGCA	-0.118 ± 0.11	0.114 ± 0.15
AAUUAGCAAUAUUACGCGCG	-1.62 ± 0.17	-0.951 ± 0.18
AAUUAGCAAUAUUACGCUUU	-3.27 ± 0.23	-1.01 ± 0.14
AAUUAGCAAUAUUACGGCAA	-0.926 ± 0.14	-0.497 ± 0.18
AAUUAGCAAUAUUACGGCAU	0.0829 ± 0.11	0.351 ± 0.11
AAUUAGCAAUAUUACGGCUA	-0.905 ± 0.17	-0.685 ± 0.22
AAUUAGCAAUAUUACGGGCG	-0.93 ± 0.12	-1.36 ± 0.13
AAUUAGCAAUAUUACGGGGU	-2.06 ± 0.2	-2.02 ± 0.32
AAUUAGCAAUAUUACGGGUA	-1.52 ± 0.11	-0.428 ± 0.098
AAUUAGCAAUAUUACGGUUU	-1.16 ± 0.063	-0.716 ± 0.089
AAUUAGCAAUAUUACGUACG	-1.75 ± 0.11	-0.862 ± 0.12
AAUUAGCAAUAUUACGUAUC	-2.2 ± 0.15	-0.0316 ± 0.13
AAUUAGCAAUAUUACGUCCA	-0.685 ± 0.087	-1.2 ± 0.096
AAUUAGCAAUAUUACGUCCG	-1.12 ± 0.18	-0.444 ± 0.26
AAUUAGCAAUAUUACGUCGU	-0.641 ± 0.1	-0.862 ± 0.12
AAUUAGCAAUAUUACGUGGG	-3.58 ± 0.24	-3.64 ± 0.3
ACAAAGCAAUAUUACGAACC	-0.815 ± 0.21	-1.44 ± 0.19
